Assays:
[1] = system: GFP-14-3-3β and its binding proteins; assay: GFP-14-3-3β co-IP with LC-MS/MS label-free quantification, untreated versus PP1c-treated; parameters: species or system human
GFP-14-3-3β = GFP-14-3-3β co-IP with LC-MS/MS, untreated GFP-14-3-3β versus GFP control (14-3-3 interactome); type: binding, human
[2] = PP1 vs untreated, LFQ intensities, replicates 1-3
[3] = untreated vs GFP, LFQ intensities, replicates 1-3

| Difference (log2), PP1 vs untreated [1, 2] [log2] | Difference (log2), PP1 vs untreated ([1]; log2 difference, pairwise comparison PP1 vs untreated, label-free quantification, 3 replicates each) | Molecule | Difference (log2), untreated vs GFP (GFP-14-3-3β; [3]) [log2] | Difference (log2), untreated vs GFP (GFP-14-3-3β; log2 difference, pairwise comparison untreated vs GFP, label-free quantification, 3 replicates each) |
| --- | --- | --- | --- | --- |
| -1.243 |  | HNRNPL (protein, UniProt P14866 1-589, looked up) Heterogeneous nuclear …: MSRRLLPRAEKRRRRLEQRQQPDEQRRRSGAMVKMAAAGGGGGGGRYYGGGSEGGRAPKRLKTDNAGDQHGGGGGGGGGAGAAGGGGGGENYDDPHKTPASPVVHIRGLIDGVVEADLVEALQEFGPISYVVVMPKKRQALVEFEDVLGACNAVNYAADNQIYIAGHPAFVNYSTSQKISRPGDSDDSRSVNSVLLFTILNPIYSITTDVLYTICNPCGPVQRIVIFRKNGVQAMVEFDSVQSAQRAKASLNGADIYSGCCTLKIEYAKPTRLNVFKNDQDTWDYTNPNLSGQGDPGSNPNKRQRQPPLLGDHPAEYGGPHGGYHSHYHDEGYGPPPPHYEGRRMGPPVGGHRRGPSRYGPQYGHPPPPPPPPEYGPHADSPVLMVYGLDQSKMNCDRVFNVFCLYGNVEKVKFMKSKPGAAMVEMADGYAVDRAITHLNNNFMFGQKLNVCVSKQPAIMPGQSYGLEDGSCSYKDFSESRNNRFSTPEQAAKNRIQHPSNVLHFFNAPLEVTEENFFEICDELGVKRPSSVKVFSGKSERSSSGLLEWESKSDALETLGFLNHYQMKNPNGPYPYTLKLCFSTAQHAS | 0.7735 |  |
|  | 1.5807 | PHB (protein, UniProt P35232 2-272, looked up) Prohibitin 1: AAKVFESIGKFGLALAVAGGVVNSALYNVDAGHRAVIFDRFRGVQDIVVGEGTHFLIPWVQKPIIFDCRSRPRNVPVITGSKDLQNVNITLRILFRPVASQLPRIFTSIGEDYDERVLPSITTEILKSVVARFDAGELITQRELVSRQVSDDLTERAATFGLILDDVSLTHLTFGKEFTEAVEAKQVAQQEAERARFVVEKAEQQKKAAIISAEGDSKAAELIANSLATAGDGLIELRKLEAAEDIAYQLSRSRNITYLPAGQSVLLQLPQ |  | 1.469 |
| -1.352 |  | KANK1 (protein, UniProt Q14678 1-1352, looked up) KN motif and ankyrin repeat …: MAHTTKVNGSASGKAGDILSGDQDKEQKDPYFVETPYGYQLDLDFLKYVDDIQKGNTIKRLNIQKRRKPSVPCPEPRTTSGQQGIWTSTESLSSSNSDDNKQCPNFLIARSQVTSTPISKPPPPLETSLPFLTIPENRQLPPPSPQLPKHNLHVTKTLMETRRRLEQERATMQMTPGEFRRPRLASFGGMGTTSSLPSFVGSGNHNPAKHQLQNGYQGNGDYGSYAPAAPTTSSMGSSIRHSPLSSGISTPVTNVSPMHLQHIREQMAIALKRLKELEEQVRTIPVLQVKISVLQEEKRQLVSQLKNQRAASQINVCGVRKRSYSAGNASQLEQLSRARRSGGELYIDYEEEEMETVEQSTQRIKEFRQLTADMQALEQKIQDSSCEASSELRENGECRSVAVGAEENMNDIVVYHRGSRSCKDAAVGTLVEMRNCGVSVTEAMLGVMTEADKEIELQQQTIESLKEKIYRLEVQLRETTHDREMTKLKQELQAAGSRKKVDKATMAQPLVFSKVVEAVVQTRDQMVGSHMDLVDTCVGTSVETNSVGISCQPECKNKVVGPELPMNWWIVKERVEMHDRCAGRSVEMCDKSVSVEVSVCETGSNTEESVNDLTLLKTNLNLKEVRSIGCGDCSVDVTVCSPKECASRGVNTEAVSQVEAAVMAVPRTADQDTSTDLEQVHQFTNTETATLIESCTNTCLSTLDKQTSTQTVETRTVAVGEGRVKDINSSTKTRSIGVGTLLSGHSGFDRPSAVKTKESGVGQININDNYLVGLKMRTIACGPPQLTVGLTASRRSVGVGDDPVGESLENPQPQAPLGMMTGLDHYIERIQKLLAEQQTLLAENYSELAEAFGEPHSQMGSLNSQLISTLSSINSVMKSASTEELRNPDFQKTSLGKITGNYLGYTCKCGGLQSGSPLSSQTSQPEQEVGTSEGKPISSLDAFPTQEGTLSPVNLTDDQIAAGLYACTNNESTLKSIMKKKDGNKDSNGAKKNLQFVGINGGYETTSSDDSSSDESSSSESDDECDVIEYPLEEEEEEEDEDTRGMAEGHHAVNIEGLKSARVEDEMQVQECEPEKVEIRERYELSEKMLSACNLLKNTINDPKALTSKDMRFCLNTLQHEWFRVSSQKSAIPAMVGDYIAAFEAISPDVLRYVINLADGNGNTALHYSVSHSNFEIVKLLLDADVCNVDHQNKAGYTPIMLAALAAVEAEKDMRIVEELFGCGDVNAKASQAGQTALMLAVSHGRIDMVKGLLACGADVNIQDDEGSTALMCASEHGHVEIVKLLLAQPGCNGHLEDNDGSTALSIALEAGHKDIAVLLYAHVNFAKAQSPGTPRLGRKTSPGPTHRGSFD | 3.839 |  |

Second part, the molecule before the results:

| Molecule | Difference (log2), PP1 vs untreated [1, 2] [log2] | Difference (log2), PP1 vs untreated ([1]; log2 difference, pairwise comparison PP1 vs untreated, label-free quantification, 3 replicates each) | Difference (log2), untreated vs GFP (GFP-14-3-3β; [3]) [log2] | Difference (log2), untreated vs GFP (GFP-14-3-3β; log2 difference, pairwise comparison untreated vs GFP, label-free quantification, 3 replicates each) |
| --- | --- | --- | --- | --- |
| FBL (protein, UniProt P22087 1-321, looked up) rRNA 2'-O-methyltransferase …: MKPGFSPRGGGFGGRGGFGDRGGRGGRGGFGGGRGRGGGFRGRGRGGGGGGGGGGGGGRGGGGFHSGGNRGRGRGGKRGNQSGKNVMVEPHRHEGVFICRGKEDALVTKNLVPGESVYGEKRVSISEGDDKIEYRAWNPFRSKLAAAILGGVDQIHIKPGAKVLYLGAASGTTVSHVSDIVGPDGLVYAVEFSHRSGRDLINLAKKRTNIIPVIEDARHPHKYRMLIAMVDVIFADVAQPDQTRIVALNAHTFLRNGGHFVISIKANCIDSTASAEAVFASEVKKMQQENMKPQEQLTLEPYERDHAVVVGVYRPPPKVKN | -1.367 |  | 2.48 |  |
| GAPVD1 (protein, UniProt Q14C86 1-1478, looked up) GTPase-activating protein and …: MVKLDIHTLAHHLKQERLYVNSEKQLIQRLNADVLKTAEKLYRTAWIAKQQRINLDRLIITSAEASPAECCQHAKILEDTQFVDGYKQLGFQETAYGEFLSRLRENPRLIASSLVAGEKLNQENTQSVIYTVFTSLYGNCIMQEDESYLLQVLRYLIEFELKESDNPRRLLRRGTCAFSILFKLFSEGLFSAKLFLTATLHEPIMQLLVEDEDHLETDPNKLIERFSPSQQEKLFGEKGSDRFRQKVQEMVESNEAKLVALVNKFIGYLKQNTYCFPHSLRWIVSQMYKTLSCVDRLEVGEVRAMCTDLLLACFICPAVVNPEQYGIISDAPINEVARFNLMQVGRLLQQLAMTGSEEGDPRTKSSLGKFDKSCVAAFLDVVIGGRAVETPPLSSVNLLEGLSRTVVYITYSQLITLVNFMKSVMSGDQLREDRMALDNLLANLPPAKPGKSSSLEMTPYNTPQLSPATTPANKKNRLPIATRSRSRTNMLMDLHMDHEGSSQETIQEVQPEEVLVISLGTGPQLTPGMMSENEVLNMQLSDGGQGDVPVDENKLHGKPDKTLRFSLCSDNLEGISEGPSNRSNSVSSLDLEGESVSELGAGPSGSNGVEALQLLEHEQATTQDNLDDKLRKFEIRDMMGLTDDRDISETVSETWSTDVLGSDFDPNIDEDRLQEIAGAAAENMLGSLLCLPGSGSVLLDPCTGSTISETTSEAWSVEVLPSDSEAPDLKQEERLQELESCSGLGSTSDDTDVREVSSRPSTPGLSVVSGISATSEDIPNKIEDLRSECSSDFGGKDSVTSPDMDEITHGAHQLTSPPSQSESLLAMFDPLSSHEGASAVVRPKVHYARPSHPPPDPPILEGAVGGNEARLPNFGSHVLTPAEMEAFKQRHSYPERLVRSRSSDIVSSVRRPMSDPSWNRRPGNEERELPPAAAIGATSLVAAPHSSSSSPSKDSSRGETEERKDSDDEKSDRNRPWWRKRFVSAMPKAPIPFRKKEKQEKDKDDLGPDRFSTLTDDPSPRLSAQAQVAEDILDKYRNAIKRTSPSDGAMANYESTGDNHDRDLSSKLLYHSDKEVMGDGESAHDSPRDEALQNISADDLPDSASQAAHPQDSAFSYRDAKKKLRLALCSADSVAFPVLTHSTRNGLPDHTDPEDNEIVCFLKVQIAEAINLQDKNLMAQLQETMRCVCRFDNRTCRKLLASIAEDYRKRAPYIAYLTRCRQGLQTTQAHLERLLQRVLRDKEVANRYFTTVCVRLLLESKEKKIREFIQDFQKLTAADDKTAQVEDFLQFLYGAMAQDVIWQNASEEQLQDAQLAIERSVMNRIFKLAFYPNQDGDILRDQVLHEHIQRLSKVVTANHRALQIPEVYLREAPWPSAQSEIRTISAYKTPRDKVQCILRMCSTIMNLLSLANEDSVPGADDFVPVLVFVLIKANPPCLLSTVQYISSFYASCLSGEESYWWMQFTAAVEFIKTIDDRK | -1.38 |  | 4.189 |  |
| GTF3C3 (protein, UniProt Q9Y5Q9 2-886, looked up) General transcription factor …: SGFSPELIDYLEGKISFEEFERRREERKTREKKSLQEKGKLSAEENPDDSEVPSSSGINSTKSQDKDVNEGETSDGVRKSVHKVFASMLGENEDDEEEEEEEEEEEEEEETPEQPTAGDVFVLEMVLNRETKKMMKEKRPRSKLPRALRGLMGEANIRFARGEREEAILMCMEIIRQAPLAYEPFSTLAMIYEDQGDMEKSLQFELIAAHLNPSDTEEWVRLAEMSLEQDNIKQAIFCYTKALKYEPTNVRYLWERSSLYEQMGDHKMAMDGYRRILNLLSPSDGERFMQLARDMAKSYYEANDVTSAINIIDEAFSKHQGLVSMEDVNIAAELYISNKQYDKALEIITDFSGIVLEKKTSEEGTSEENKAPENVTCTIPDGVPIDITVKLMVCLVHLNILEPLNPLLTTLVEQNPEDMGDLYLDVAEAFLDVGEYNSALPLLSALVCSERYNLAVVWLRHAECLKALGYMERAAESYGKVVDLAPLHLDARISLSTLQQQLGQPEKALEALEPMYDPDTLAQDANAAQQELKLLLHRSTLLFSQGKMYGYVDTLLTMLAMLLKVAMNRAQVCLISSSKSGERHLYLIKVSRDKISDSNDQESANCDAKAIFAVLTSVLTKDDWWNLLLKAIYSLCDLSRFQEAELLVDSSLEYYSFYDDRQKRKELEYFGLSAAILDKNFRKAYNYIRIMVMENVNKPQLWNIFNQVTMHSQDVRHHRFCLRLMLKNPENHALCVLNGHNAFVSGSFKHALGQYVQAFRTHPDEPLYSFCIGLTFIHMASQKYVLRRHALIVQGFSFLNRYLSLRGPCQESFYNLGRGLHQLGLIHLAIHYYQKALELPPLVVEGIELDQLDLRRDIAYNLSLIYQSSGNTGMAQTLLYTYCSI | -1.189 |  | 0.6927 |  |
| HNRNPA2B1 (protein, UniProt P22626 1-353, looked up) Heterogeneous nuclear …: MEKTLETVPLERKKREKEQFRKLFIGGLSFETTEESLRNYYEQWGKLTDCVVMRDPASKRSRGFGFVTFSSMAEVDAAMAARPHSIDGRVVEPKRAVAREESGKPGAHVTVKKLFVGGIKEDTEEHHLRDYFEEYGKIDTIEIITDRQSGKKRGFGFVTFDDHDPVDKIVLQKYHTINGHNAEVRKALSRQEMQEVQSSRSGRGGNFGFGDSRGGGGNFGPGPGSNFRGGSDGYGSGRGFGDGYNGYGGGPGGGNFGGSPGYGGGRGGYGGGGPGYGNQGGGYGGGYDNYGGGNYGSGNYNDFGNYNQQPSNYGPMKSGNFGGSRNMGGPYGGGNYGPGGSGGSGGYGGRSRY | -1.185 |  | 1.703 |  |

— paper PMC7367873, “Dissecting the sequence determinants for dephosphorylation by the catalytic subunits of phosphatases PP1 and PP2A” (Nature Communications, 2020)
